T1: Human LRRC15 Protein, His Tag (Acro Biosystems) (human, UniProt Q8TF66 22-538, limits assumed)
T1 construct: not shown: His tag
T1 sequence (looked up): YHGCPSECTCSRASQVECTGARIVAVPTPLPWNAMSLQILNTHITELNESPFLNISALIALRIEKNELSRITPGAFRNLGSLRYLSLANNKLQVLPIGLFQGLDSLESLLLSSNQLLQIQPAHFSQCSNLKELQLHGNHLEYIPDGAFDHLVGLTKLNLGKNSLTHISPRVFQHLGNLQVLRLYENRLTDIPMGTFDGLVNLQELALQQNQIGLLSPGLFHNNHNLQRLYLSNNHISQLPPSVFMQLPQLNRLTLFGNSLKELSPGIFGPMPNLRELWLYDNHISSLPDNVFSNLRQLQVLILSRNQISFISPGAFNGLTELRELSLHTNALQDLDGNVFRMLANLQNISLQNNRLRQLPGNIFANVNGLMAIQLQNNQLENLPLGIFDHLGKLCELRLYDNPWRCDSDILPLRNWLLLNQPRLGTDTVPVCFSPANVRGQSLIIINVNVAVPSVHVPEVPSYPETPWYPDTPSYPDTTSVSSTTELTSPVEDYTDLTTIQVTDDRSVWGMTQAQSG


Each binder was assayed against T1, Human LRRC15 Protein, His Tag (Acro …) (assay: BLI; dissociation pH 7.4 black, pH 5.4 grey [1/2); D00025 FIG. 6B (1/2]).
Method: Desirable mutations were transferred to a humanized framework (humanized, MYT 8387-8411). After allowing for four days of protein expression, cell culture supernatants were collected, quantified by SDS-PAGE analysis, and the pH dependence of the variant was evaluated using biolayer interferometry (BLI) on an Octet RED 96e instrument. Briefly, cell culture supernatants were diluted based on qualitative expression level of the variant determined by visual examination of SDS-PAGE gels, 5 μL of cell culture supernatant was diluted into 195 μL of 1×PBST, pH 7.4 for high expressors, 25 μL of cell culture supernatant was diluted into 175 μL of 1×PBST, pH 7.4 for medium expressors and 100 μL of cell culture supernatant was diluted into 100 μL of 1×PBST, pH 7.4 for low expressors for loading onto the sensor tips. The resulting diluted supernatants were then captured on an anti-human Fc sensor (Forte Bio). A baseline was established using 1×PBST (50 mM Potassium Phosphate Buffer+150 mM NaCl+0.05% Tween 20) pH 7.4, and the […] was associated with 50 nM of LRRC15 (Human LRRC15 Protein, His Tag, Acro Biosystems) in 1×PBST pH 7.4 for 120 sec to generate an association curve. In the dissociation phase, the antibody-antigen complex on the sensor was exposed to 1×PBST pH 7.4 or pH 5.4, for 300 sec. Association and dissociation phase curves were examined for the starting ABPC antibody (with no substitutions) and each corresponding antibody variant at pH 5.4 and pH 7.4 to inform on two criteria: a) enhanced dissociation (i.e., higher koff values) at pH 5.4 due to histidine substitution compared to the starting ABPC, (with no substitutions), and b) reduced dissociation at pH 7.4 (i.e., lower koff values) compared to pH 5.4 in the antibody variant itself and with the starting ABPC (with no substitutions).
The methods of Examples 9-10 were applied to RabMAb clone 29F1 (rabbit VH SEQ ID NO: 572 and VL SEQ ID NO: 578; and humanized VH SEQ ID NO: 576 and VL SEQ ID NO: 582).

Row | Binder | binding result
1 | MYT9691 (antibody, V domains shown, also called hu29F1 VH H33E) VH: EVQLVESGGGLVQPGGSLRLSCTASGFSFSSSEWICWVRQAPGKGLEWVGCIYAGSIGSTYYASWAKGRFTISRDTSKNTVYLQMNSLRAEDTAVYYCARAPNDIYNYYFNLWGQGTLVTVSS VL: EIVMTQSPSTLSASVGDRVIITCQASENIYNYLAWYQQKPGKAPKLLIYYASTLASGVPSRFSGSGSGAEFTLTISSLQPDDFATYYCQSGYVSKSSTFGQGTKLTVL | binds
2 | MYT9701 (antibody, V domains shown, also called hu29F1 VH I57E) VH: EVQLVESGGGLVQPGGSLRLSCTASGFSFSSSHWICWVRQAPGKGLEWVGCIYAGSEGSTYYASWAKGRFTISRDTSKNTVYLQMNSLRAEDTAVYYCARAPNDIYNYYFNLWGQGTLVTVSS VL: EIVMTQSPSTLSASVGDRVIITCQASENIYNYLAWYQQKPGKAPKLLIYYASTLASGVPSRFSGSGSGAEFTLTISSLQPDDFATYYCQSGYVSKSSTFGQGTKLTVL | binds
3 | MYT9706 (antibody, V domains shown, also called hu29F1 VH Y62E) VH: EVQLVESGGGLVQPGGSLRLSCTASGFSFSSSHWICWVRQAPGKGLEWVGCIYAGSIGSTYEASWAKGRFTISRDTSKNTVYLQMNSLRAEDTAVYYCARAPNDIYNYYFNLWGQGTLVTVSS VL: EIVMTQSPSTLSASVGDRVIITCQASENIYNYLAWYQQKPGKAPKLLIYYASTLASGVPSRFSGSGSGAEFTLTISSLQPDDFATYYCQSGYVSKSSTFGQGTKLTVL | binds
4 | MYT9703 (antibody, V domains shown, Humanized 29F1 VH glutamate variant; also called hu29F1 VH S59E) VH: EVQLVESGGGLVQPGGSLRLSCTASGFSFSSSHWICWVRQAPGKGLEWVGCIYAGSIGETYYASWAKGRFTISRDTSKNTVYLQMNSLRAEDTAVYYCARAPNDIYNYYFNLWGQGTLVTVSS VL: EIVMTQSPSTLSASVGDRVIITCQASENIYNYLAWYQQKPGKAPKLLIYYASTLASGVPSRFSGSGSGAEFTLTISSLQPDDFATYYCQSGYVSKSSTFGQGTKLTVL | binds
5 | MYT9708 (antibody, V domains shown, also called hu29F1 VH S64E) VH: EVQLVESGGGLVQPGGSLRLSCTASGFSFSSSHWICWVRQAPGKGLEWVGCIYAGSIGSTYYAEWAKGRFTISRDTSKNTVYLQMNSLRAEDTAVYYCARAPNDIYNYYFNLWGQGTLVTVSS VL: EIVMTQSPSTLSASVGDRVIITCQASENIYNYLAWYQQKPGKAPKLLIYYASTLASGVPSRFSGSGSGAEFTLTISSLQPDDFATYYCQSGYVSKSSTFGQGTKLTVL | binds
6 | MYT9704 (antibody, V domains shown, also called hu29F1 VH T60E) VH: EVQLVESGGGLVQPGGSLRLSCTASGFSFSSSHWICWVRQAPGKGLEWVGCIYAGSIGSEYYASWAKGRFTISRDTSKNTVYLQMNSLRAEDTAVYYCARAPNDIYNYYFNLWGQGTLVTVSS VL: EIVMTQSPSTLSASVGDRVIITCQASENIYNYLAWYQQKPGKAPKLLIYYASTLASGVPSRFSGSGSGAEFTLTISSLQPDDFATYYCQSGYVSKSSTFGQGTKLTVL | binds
7 | MYT9713 (antibody, V domains shown, also called hu29F1 VH A99E) VH: EVQLVESGGGLVQPGGSLRLSCTASGFSFSSSHWICWVRQAPGKGLEWVGCIYAGSIGSTYYASWAKGRFTISRDTSKNTVYLQMNSLRAEDTAVYYCERAPNDIYNYYFNLWGQGTLVTVSS VL: EIVMTQSPSTLSASVGDRVIITCQASENIYNYLAWYQQKPGKAPKLLIYYASTLASGVPSRFSGSGSGAEFTLTISSLQPDDFATYYCQSGYVSKSSTFGQGTKLTVL | binds

Continued, values first:

Row | binding result | Binder
8 | binds | MYT9710 (antibody, V domains shown, also called hu29F1 VH A66E) VH: EVQLVESGGGLVQPGGSLRLSCTASGFSFSSSHWICWVRQAPGKGLEWVGCIYAGSIGSTYYASWEKGRFTISRDTSKNTVYLQMNSLRAEDTAVYYCARAPNDIYNYYFNLWGQGTLVTVSS VL: EIVMTQSPSTLSASVGDRVIITCQASENIYNYLAWYQQKPGKAPKLLIYYASTLASGVPSRFSGSGSGAEFTLTISSLQPDDFATYYCQSGYVSKSSTFGQGTKLTVL
9 | binds | MYT9712 (antibody, V domains shown, also called hu29F1 VH G68E) VH: EVQLVESGGGLVQPGGSLRLSCTASGFSFSSSHWICWVRQAPGKGLEWVGCIYAGSIGSTYYASWAKERFTISRDTSKNTVYLQMNSLRAEDTAVYYCARAPNDIYNYYFNLWGQGTLVTVSS VL: EIVMTQSPSTLSASVGDRVIITCQASENIYNYLAWYQQKPGKAPKLLIYYASTLASGVPSRFSGSGSGAEFTLTISSLQPDDFATYYCQSGYVSKSSTFGQGTKLTVL
10 | binds | MYT9696 (antibody, V domains shown, also called hu29F1 VH I52E) VH: EVQLVESGGGLVQPGGSLRLSCTASGFSFSSSHWICWVRQAPGKGLEWVGCEYAGSIGSTYYASWAKGRFTISRDTSKNTVYLQMNSLRAEDTAVYYCARAPNDIYNYYFNLWGQGTLVTVSS VL: EIVMTQSPSTLSASVGDRVIITCQASENIYNYLAWYQQKPGKAPKLLIYYASTLASGVPSRFSGSGSGAEFTLTISSLQPDDFATYYCQSGYVSKSSTFGQGTKLTVL
11 | binds | MYT9705 (antibody, V domains shown, also called hu29F1 VH Y61E) VH: EVQLVESGGGLVQPGGSLRLSCTASGFSFSSSHWICWVRQAPGKGLEWVGCIYAGSIGSTEYASWAKGRFTISRDTSKNTVYLQMNSLRAEDTAVYYCARAPNDIYNYYFNLWGQGTLVTVSS VL: EIVMTQSPSTLSASVGDRVIITCQASENIYNYLAWYQQKPGKAPKLLIYYASTLASGVPSRFSGSGSGAEFTLTISSLQPDDFATYYCQSGYVSKSSTFGQGTKLTVL
12 | binds | MYT9699 (antibody, V domains shown, also called hu29F1 VH G55E) VH: EVQLVESGGGLVQPGGSLRLSCTASGFSFSSSHWICWVRQAPGKGLEWVGCIYAESIGSTYYASWAKGRFTISRDTSKNTVYLQMNSLRAEDTAVYYCARAPNDIYNYYFNLWGQGTLVTVSS VL: EIVMTQSPSTLSASVGDRVIITCQASENIYNYLAWYQQKPGKAPKLLIYYASTLASGVPSRFSGSGSGAEFTLTISSLQPDDFATYYCQSGYVSKSSTFGQGTKLTVL
13 | binds | MYT9711 (antibody, V domains shown, also called hu29F1 VH K67E) VH: EVQLVESGGGLVQPGGSLRLSCTASGFSFSSSHWICWVRQAPGKGLEWVGCIYAGSIGSTYYASWAEGRFTISRDTSKNTVYLQMNSLRAEDTAVYYCARAPNDIYNYYFNLWGQGTLVTVSS VL: EIVMTQSPSTLSASVGDRVIITCQASENIYNYLAWYQQKPGKAPKLLIYYASTLASGVPSRFSGSGSGAEFTLTISSLQPDDFATYYCQSGYVSKSSTFGQGTKLTVL
14 | binds | MYT9707 (antibody, V domains shown, also called hu29F1 VH A63E) VH: EVQLVESGGGLVQPGGSLRLSCTASGFSFSSSHWICWVRQAPGKGLEWVGCIYAGSIGSTYYESWAKGRFTISRDTSKNTVYLQMNSLRAEDTAVYYCARAPNDIYNYYFNLWGQGTLVTVSS VL: EIVMTQSPSTLSASVGDRVIITCQASENIYNYLAWYQQKPGKAPKLLIYYASTLASGVPSRFSGSGSGAEFTLTISSLQPDDFATYYCQSGYVSKSSTFGQGTKLTVL
15 | binds | MYT9693 (antibody, V domains shown, also called hu29F1 VH I35E) VH: EVQLVESGGGLVQPGGSLRLSCTASGFSFSSSHWECWVRQAPGKGLEWVGCIYAGSIGSTYYASWAKGRFTISRDTSKNTVYLQMNSLRAEDTAVYYCARAPNDIYNYYFNLWGQGTLVTVSS VL: EIVMTQSPSTLSASVGDRVIITCQASENIYNYLAWYQQKPGKAPKLLIYYASTLASGVPSRFSGSGSGAEFTLTISSLQPDDFATYYCQSGYVSKSSTFGQGTKLTVL
16 | binds | MYT9702 (antibody, V domains shown, also called hu29F1 VH G58E) VH: EVQLVESGGGLVQPGGSLRLSCTASGFSFSSSHWICWVRQAPGKGLEWVGCIYAGSIESTYYASWAKGRFTISRDTSKNTVYLQMNSLRAEDTAVYYCARAPNDIYNYYFNLWGQGTLVTVSS VL: EIVMTQSPSTLSASVGDRVIITCQASENIYNYLAWYQQKPGKAPKLLIYYASTLASGVPSRFSGSGSGAEFTLTISSLQPDDFATYYCQSGYVSKSSTFGQGTKLTVL
